Test results taken from publication PMC3142331 (Molecular cell, 2011).
Square brackets hold non-standard residues; d marks the D form. Ends that are not written are not given here. fluorescein = fluorescein label (fluorescent) on the peptide N-terminus; pS = N[C@@H](COP(=O)(O)O)C(=O)O

T1: fluorescein labeled phosphorylated CTD peptide (Fluor-S2P3T4S5PP6S7Y1S2PP3T4S5)
T1 peptide: fluorescein-SPT[pS]PSY[pS]PTS

B1: Mce R330A (domain or fragment)
chain: not shown
B2: Mce C383Y (domain or fragment)
chain: not shown
B3: Mce R330A/K331A (domain or fragment)
chain: not shown
B4: Mce R330A/K331A/R386A (domain or fragment)
chain: not shown
B5: Mce-C375R (domain or fragment)
chain: not shown
B6: Mce-K294A (domain or fragment)
chain: not shown

What was measured:
[1] = biological target: tetraheptad CTD-Ser5-PO4 peptide (phosphorylated at Ser5 (CTD-Ser5-PO4)); assay: cell-based or functional assay
[2] = biological target: T1, fluorescein labeled phosphorylated CTD …; assay: fluorescence polarisation

Row | Binder | fold stimulation of guanylylation by CTD Ser5-PO4 [1] | other results
1 | B1 | 2.1 fold | 
2 | B2 |  | fold decrease in affinity against wild-type Mce [2]: 1.9 fold
3 | B3 | 1.9 fold | 
4 | B4 | 1.6 fold | 
5 | B5 |  | fold stimulation of guanylylation in the presence of CTD Ser5-PO4 [1]: 5.9 fold
6 | B6 |  | fold reduction of affinity against wild-type Mce [2]: ~1.8 fold
